The supplement of paper PMC9112550, “Optimization of the antimicrobial peptide Bac7 by deep mutational scanning” (BMC Biology, 2022)

System: Escherichia coli TOP10
Experiment: shrunken log2 fold change of peptide-encoding DNA abundance (4.5 h post-induction vs induction); higher = less antimicrobial activity (less host growth inhibition)
Details: time post-induction: 4.5 h; library: site-saturation at positions 5, 18, 19, 20
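Also: peptides expressed intracellularly from a pBAD plasmid library in pooled LB shake-flask culture, induced with 0.3% L-arabinose, DNA abundance read by NGS, three biological replicates, DESeq2 with apeglm shrinkage.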

Sequence	shrunken log2 fold change
RRIRHRPPRLPRPRPRPYEWPRP	-0.0335
RRIRLRPPRLPRPRPRPTLPPRP	0.223
RRIRRRPPRLPRPRPRPGEHPRP	0.291
RRIRARPPRLPRPRPRPFQDPRP	-0.297
RRIRLRPPRLPRPRPRPRLIPRP	0.123
RRIRKRPPRLPRPRPRPRVNPRP	0.0555
RRIRVRPPRLPRPRPRPTQTPRP	0.0438
RRIRGRPPRLPRPRPRPRKLPRP	0.86
RRIRKRPPRLPRPRPRPTQCPRP	0.567
RRIRHRPPRLPRPRPRPFSRPRP	-0.0618
RRIRPRPPRLPRPRPRPTCDPRP	0.052
RRIRCRPPRLPRPRPRPCGDPRP	0.0996
RRIRARPPRLPRPRPRPHQLPRP	0.086
RRIRNRPPRLPRPRPRPVDVPRP	-0.122
RRIRHRPPRLPRPRPRPRLIPRP	-0.0786
RRIRWRPPRLPRPRPRPALMPRP	0.159
RRIRWRPPRLPRPRPRPTKNPRP	0.159
RRIRLRPPRLPRPRPRPVYEPRP	0.788
RRIRVRPPRLPRPRPRPKQRPRP	0.157
RRIRNRPPRLPRPRPRPHGWPRP	0.127
RRIRIRPPRLPRPRPRPWEEPRP	-0.04
RRIRPRPPRLPRPRPRPCPRPRP	0.0438
RRIRFRPPRLPRPRPRPFYNPRP	-0.468
RRIRERPPRLPRPRPRPPFHPRP	-0.139
RRIRMRPPRLPRPRPRPVSRPRP	0.796

Sequence	shrunken log2 fold change
RRIRARPPRLPRPRPRPIAHPRP	0.13
RRIRDRPPRLPRPRPRPVGWPRP	0.945
RRIRGRPPRLPRPRPRPYFAPRP	0.357
RRIRNRPPRLPRPRPRPRKRPRP	-0.0369
RRIRWRPPRLPRPRPRPQTDPRP	0.236
RRIRFRPPRLPRPRPRPKNCPRP	1.35
RRIRIRPPRLPRPRPRPVGYPRP	0.0961
RRIRDRPPRLPRPRPRPLMWPRP	2.47
RRIRYRPPRLPRPRPRPFWAPRP	-0.306
RRIRIRPPRLPRPRPRPQAHPRP	-0.261
RRIRYRPPRLPRPRPRPRPRPRP	0.463
RRIRSRPPRLPRPRPRPYQSPRP	0.0187
RRIRCRPPRLPRPRPRPVVVPRP	-0.203
RRIRYRPPRLPRPRPRPSYKPRP	-1.22
RRIRIRPPRLPRPRPRPEHPPRP	-0.182
RRIRLRPPRLPRPRPRPFGSPRP	-0.0744
RRIRNRPPRLPRPRPRPANGPRP	0.0343
RRIRWRPPRLPRPRPRPIYPPRP	-0.0275
RRIRTRPPRLPRPRPRPKSQPRP	-0.285
RRIRIRPPRLPRPRPRPPIKPRP	-0.4
RRIRFRPPRLPRPRPRPLECPRP	-0.0348
RRIRSRPPRLPRPRPRPQKQPRP	-0.122
RRIRFRPPRLPRPRPRPCYFPRP	-0.379
RRIRIRPPRLPRPRPRPCGIPRP	-0.222
RRIRWRPPRLPRPRPRPTCGPRP	0.73

Sequence	shrunken log2 fold change
RRIRSRPPRLPRPRPRPVKFPRP	0.0903
RRIRLRPPRLPRPRPRPRENPRP	0.345
RRIRNRPPRLPRPRPRPGDMPRP	-0.21
RRIRYRPPRLPRPRPRPFFQPRP	-0.428
RRIRYRPPRLPRPRPRPHYDPRP	-0.557
RRIRTRPPRLPRPRPRPRNHPRP	-0.345
RRIRHRPPRLPRPRPRPCSMPRP	-0.0569
RRIRIRPPRLPRPRPRPTIQPRP	-0.334
RRIRSRPPRLPRPRPRPQLWPRP	0.0725
RRIRKRPPRLPRPRPRPRGTPRP	0.648
RRIRGRPPRLPRPRPRPYTNPRP	-0.313
RRIRGRPPRLPRPRPRPIQMPRP	-0.027
RRIRLRPPRLPRPRPRPPFRPRP	0.526
RRIRVRPPRLPRPRPRPPWQPRP	0.44
RRIRRRPPRLPRPRPRPGHDPRP	0.0801
RRIRCRPPRLPRPRPRPAKEPRP	-0.0092
RRIRIRPPRLPRPRPRPEQPPRP	0.307
RRIRIRPPRLPRPRPRPKTYPRP	-0.879
RRIRERPPRLPRPRPRPPARPRP	0.451
RRIRRRPPRLPRPRPRPFLPPRP	0.111
RRIRYRPPRLPRPRPRPMKEPRP	-0.00804
RRIRVRPPRLPRPRPRPGMIPRP	-0.2
RRIRERPPRLPRPRPRPHKKPRP	0.0621
RRIRLRPPRLPRPRPRPDKQPRP	-6.78e-05
RRIRGRPPRLPRPRPRPGRIPRP	0.153

Sequence	shrunken log2 fold change
RRIRSRPPRLPRPRPRPGYPPRP	-0.209
RRIRTRPPRLPRPRPRPLLMPRP	-0.278
RRIRYRPPRLPRPRPRPQKWPRP	-0.16
RRIRIRPPRLPRPRPRPTFSPRP	-0.545
RRIRQRPPRLPRPRPRPHVFPRP	-0.000919
RRIRYRPPRLPRPRPRPNHGPRP	-0.0102
RRIRMRPPRLPRPRPRPMMHPRP	-0.0538
RRIRCRPPRLPRPRPRPRHQPRP	0.18
RRIRMRPPRLPRPRPRPYKWPRP	-0.141
RRIRMRPPRLPRPRPRPTINPRP	-0.109
RRIRMRPPRLPRPRPRPEEDPRP	0.0356
RRIRHRPPRLPRPRPRPMDNPRP	-0.262
RRIRWRPPRLPRPRPRPRDPPRP	0.241
RRIRCRPPRLPRPRPRPDGFPRP	-0.333
RRIRYRPPRLPRPRPRPDGLPRP	-0.528
RRIRMRPPRLPRPRPRPWLWPRP	0.0882
RRIRGRPPRLPRPRPRPYPRPRP	0.162
RRIRWRPPRLPRPRPRPIAGPRP	0.0596
RRIRVRPPRLPRPRPRPAQCPRP	-0.0313
RRIRKRPPRLPRPRPRPSSSPRP	-0.94
RRIRDRPPRLPRPRPRPISRPRP	-0.032
RRIRWRPPRLPRPRPRPKPIPRP	0.477
RRIRGRPPRLPRPRPRPYKKPRP	-0.186
RRIRGRPPRLPRPRPRPLLHPRP	0.762
RRIRSRPPRLPRPRPRPSSKPRP	-0.219

Sequence	shrunken log2 fold change
RRIRQRPPRLPRPRPRPCYNPRP	-0.0459
RRIRRRPPRLPRPRPRPCDCPRP	0.00422
RRIRFRPPRLPRPRPRPYKNPRP	-0.957
RRIRVRPPRLPRPRPRPQQIPRP	-0.119
RRIRQRPPRLPRPRPRPRTMPRP	-0.232
RRIRCRPPRLPRPRPRPSQDPRP	0.0757
RRIRARPPRLPRPRPRPPTAPRP	0.744
RRIRKRPPRLPRPRPRPHIIPRP	0.0119
RRIRGRPPRLPRPRPRPRCMPRP	0.364
RRIRERPPRLPRPRPRPCHKPRP	-0.154
RRIRNRPPRLPRPRPRPKFIPRP	-0.602
RRIRARPPRLPRPRPRPNDHPRP	-0.0473
RRIRTRPPRLPRPRPRPHWWPRP	0.203
RRIRPRPPRLPRPRPRPQIWPRP	0.0101
RRIRIRPPRLPRPRPRPHEEPRP	-0.031
RRIRERPPRLPRPRPRPFVIPRP	-0.478
RRIRKRPPRLPRPRPRPKPAPRP	1.11
RRIRFRPPRLPRPRPRPWLHPRP	0.0608
RRIRNRPPRLPRPRPRPNMMPRP	-0.25
RRIRPRPPRLPRPRPRPSYWPRP	-0.277
RRIRARPPRLPRPRPRPMEAPRP	-0.047
RRIRQRPPRLPRPRPRPVFQPRP	0.0308
RRIRMRPPRLPRPRPRPRWLPRP	0.459
RRIRARPPRLPRPRPRPAFTPRP	0.315
RRIRIRPPRLPRPRPRPSTKPRP	-1.14
